# Patent publication US20200369754A1 (published 2020)
# T1: Tau peptide A6940 (biotin (bound via biotin to a streptavidin biosensor in the Octet assay; position of the biotin not stated))
# T1 peptide: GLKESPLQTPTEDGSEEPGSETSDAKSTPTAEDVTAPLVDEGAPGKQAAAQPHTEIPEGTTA
# Target: T1, Tau peptide A6940
# Experiment: ITC
binder,measurement,value
"CBTAU-28.1 (S32R[VL];E35K[VL]) (antibody, V domains shown) VH: QVQLQQSGAEVKKPGESLKISCEASGYSFTNYWIGWVRQMPGKGLEWMGIIYPGDSDTRYSPPFQGQVTITADRSITTAYLEWSSLKASDTAMYYCARVGRPSKGGWFDPWGQGTLVTVSS VL: DIQMTQSPDSLAVSLGERATINCESSQTLLYRSNKKNYLAWYQQKPGQPPKLLISWASTPESGVPDRFSGSGSGTSFTLTISSLQAEDVAVYYCQQYYNSPYTFGQGTRLEIK",Kd,220 nM
